Consider 1 molecule from patent US20190062438A1 (CSL, published 2019).

In this assay the target is T1, shCD131 Y365A (human, UniProt P32927 17-438).
T1 construct: C-terminal 6xHis
T1 sequence: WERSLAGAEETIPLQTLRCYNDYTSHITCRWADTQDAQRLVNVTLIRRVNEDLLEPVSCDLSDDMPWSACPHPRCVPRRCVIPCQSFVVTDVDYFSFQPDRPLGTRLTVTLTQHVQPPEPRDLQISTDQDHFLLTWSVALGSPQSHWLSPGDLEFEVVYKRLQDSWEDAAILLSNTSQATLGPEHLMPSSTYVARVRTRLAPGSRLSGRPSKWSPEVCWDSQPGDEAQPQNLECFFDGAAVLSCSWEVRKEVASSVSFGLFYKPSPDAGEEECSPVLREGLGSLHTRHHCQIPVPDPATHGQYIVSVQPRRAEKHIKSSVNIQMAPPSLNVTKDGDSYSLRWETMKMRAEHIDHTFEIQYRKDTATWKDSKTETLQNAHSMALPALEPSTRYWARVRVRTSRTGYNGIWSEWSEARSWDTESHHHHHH
In words: SPR, Fab over captured mutant. As for the experimental part: As shβc is a dimer, kinetics assays were performed with shβc captured on the sensor surface, and purified Fab injected as the analyte. Avidity effects were avoided by the use of Fab rather than whole IgG.
shCD131 was captured on spots 1 and 5 of each flow cell for 2 minutes at a concentration of 0.4 μg/ml. […] For some analysis purified Fab was injected over each flow cell for 3 minutes and dissociation was monitored for a further 10 minutes. Regeneration of the surface was performed after each cycle with a 40 second injection of 25 mM glycine, pH 2.0. The analysis was performed with Fabs at several concentrations between 100 and 0.31 nM, with each concentration analyzed twice and in random order. The analysis was performed at a flow rate of 30 μl/min in HBS-EP buffer (10 mM Hepes, 150 mM NaCl, 3 mM EDTA, 0.005% Tween 20, pH 7.4) at 37° C. Responses from spots 2 and 4 of each flow cell, (in which shβc was not captured, but otherwise treated identically), were subtracted from those of spots 1 and 5 respectively to produce reference subtracted data. Reference subtracted responses from a blank injection comprising buffer alone were subtracted from the resultant sensorgrams to produce double referenced data suitable for kinetic analysis. Double-referenced sensorgrams were fitted using non-linear regression to a model describing 1:1 kinetics, including a term for mass transport limitation. The Rₘₐₓ value was fitted locally to account for slight deviations in the level of sCD131 captured, with association rate (kₐ), dissociation rate (kd) and equilibrium dissociation constant (KD) fitted globally.
Mapping of the shCD131 epitope was performed by measurement of the affinity of Fabs for various alanine point mutants of shCD131 essentially as described above, with the following exceptions. Each shCD131 mutant was captured for 120 seconds at concentrations between 1 and 5 μg/ml. For kinetic analysis, purified recombinant Fabs were injected for 2 minutes, and dissociation was monitored for a further 2 minutes. […] Fab concentrations ranged from 16 μM to 3.9 nM in two-fold dilutions.
For orientation: In SPR one partner is held on a chip, and binding of the other changes the refractive index at the surface.

B1: 9A2 Fab (Fab, V domains shown)
VH: EVQLLESGGGLVQPGGSLRLSCAASGFTFSHYHMLWVRQAPGKGLEWVSSIRSSGGFTYYADSVKGRFTISRDNSKNTLYLQMNSLRAEDTAVYYCARFYDSFFDIWGQGTMVTVSS
VL: DIQMTQSPSSVSASVGDRVTITCRASQGISSWLAWYQQKPGKAPKLLIYAASSLQSGVPSRFSGSGSGTDFTLTISSLQPEDFATYYCQQANSFPITFGQGTRLEIKR
notes: also called recombinant Fab of 9A2
Regarding B1, the binding result is recorded as “no binding (tested: Fab up to 16 µM)”.
